{"source": "paper doi:10.1101/461806", "about": "(bioRxiv, 2018)", "key": {"SEC-MALS": {"target": "the molecule itself", "test": "SEC-MALS"}, "[1]": {"target": "T1, Cul3NΔ22 (human Cul3 N-terminal domain, residues 23-388, I342R L346D) (human, UniProt Q13618 23-388, I342R | L346D)", "T1 sequence (Q13618 23-388 I342R/L346D)": "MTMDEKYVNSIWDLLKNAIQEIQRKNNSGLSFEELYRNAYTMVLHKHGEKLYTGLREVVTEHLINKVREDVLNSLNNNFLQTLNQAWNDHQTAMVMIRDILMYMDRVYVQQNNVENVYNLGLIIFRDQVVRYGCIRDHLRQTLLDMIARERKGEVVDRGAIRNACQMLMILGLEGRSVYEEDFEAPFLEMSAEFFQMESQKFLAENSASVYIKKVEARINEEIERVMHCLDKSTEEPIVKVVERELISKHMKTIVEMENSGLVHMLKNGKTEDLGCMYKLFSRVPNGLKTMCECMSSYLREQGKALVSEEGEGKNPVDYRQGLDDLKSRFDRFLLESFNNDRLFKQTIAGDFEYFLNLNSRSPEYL", "test": "SEC-MALS"}, "[2]": {"target": "Cul3N (human Cul3 N-terminal domain, residues 1-388, I342R L346D) (human, UniProt Q13618 1-388, I342R | L346D)", "sequence (Q13618 1-388 I342R/L346D)": "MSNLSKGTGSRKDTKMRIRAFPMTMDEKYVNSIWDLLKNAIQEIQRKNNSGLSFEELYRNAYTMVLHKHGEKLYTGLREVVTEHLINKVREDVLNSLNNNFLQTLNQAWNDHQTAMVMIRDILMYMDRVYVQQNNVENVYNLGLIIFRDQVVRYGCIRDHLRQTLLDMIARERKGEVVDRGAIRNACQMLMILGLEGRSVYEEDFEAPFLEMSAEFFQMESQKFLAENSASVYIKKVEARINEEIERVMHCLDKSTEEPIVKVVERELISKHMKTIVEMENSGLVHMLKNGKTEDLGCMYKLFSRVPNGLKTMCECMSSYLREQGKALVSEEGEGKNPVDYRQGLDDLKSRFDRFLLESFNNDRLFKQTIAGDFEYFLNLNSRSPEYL", "test": "ITC"}, "[3]": {"target": "T1, Cul3NΔ22 (human Cul3 N-terminal domain, …)", "test": "ITC"}}}
{"binder": "A55BB (A55 BTB-BACK domain, residues 1-250) (domain or fragment) MNNSSELIAVINGFRNSGRFCDISIVINDERINAHKLILSGASEYFSILFSNNFIDSNEYEVNLSHLDYQSVNDLIDYIYGIPLSLTNDNVKYILSTADFLQIGSAITECENYILKNLCSKNCIDFYIYADKYNNKKIESASFNTILQNILRLINDENFKYLTEESMIKILSDDMLNIKNEDFAPLILIKWLESTQQSCTVELLRCLRISLLSPQVIKSLYSHQLVSSIYECITFLNNIAFLDESFPRYH", "values": [{"measurement": "stoichiometry N", "setting": "SEC-MALS", "result": 2}, {"measurement": "stoichiometry N", "setting": "[1]", "result": "1 A55BB per Cul3NΔ22 (2:2 complex)"}, {"measurement": "Kd", "setting": "[2]", "result": "< 1", "unit": "nM"}, {"measurement": "stoichiometry N", "setting": "[2]", "result": 1}, {"measurement": "Kd", "setting": "[3]", "result": 3, "unit": "nM"}, {"measurement": "dH", "setting": "[3]", "result": -10.2, "unit": "kcal/mol"}, {"measurement": "stoichiometry N", "setting": "[3]", "result": 1}]}
{"binder": "KLHL3-BB (human KLHL3 BTB-BACK, residues 24-276) (domain or fragment) RTITVNPAHMGKAFKVMNELRSKQLLCDVMIVAEDVEIEAHRVVLAACSPYFCAMFTGDMSESKAKKIEIKDVDGQTLSKLIDYIYTAEIEVTEENVQVLLPAASLLQLMDVRQNCCDFLQSQLHPTNCLGIRAFADVHTCTDLLQQANAYAEQHFPEVMLGEEFLSLSLDQVCSLISSDKLTVSSEEKVFEAVISWINYEKETRLEHMAKLMEHVRLPLLPRDYLVQTVEEEALIKNNNTCKDFLIEAMKYH", "values": [{"measurement": "dH", "setting": "[3]", "result": -18.9, "unit": "kcal/mol"}]}
